Measured values taken from patent US6635627B1, “Anti-cancer products for treating cystic fibrosis” (Centre National de la Recherche Scientifique (CNRS), priority 1997, dated 2003).

Assay: Retention on affinity column grafted with glutathione (GSH) after thrombin cutting
Type: binding
Conditions: after cutting GST-NBF1 with thrombin; coelutes with GST
Procedure: The suspension was centrifuged at 17,000 rpm for 40 minutes, and at 4° C., on a JA20 rotor (Beckman). The supernatant was incubated with 5 ml of a glutathione support (G4B Pharmacia) at ambient temperature for 30 minutes. The column was filled. The fusion protein was eluted with a 10 mM glutathione, 50 mM Tris, pH 8, solution at a flow rate of 0.05 ml/min. The fractions absorbing at 280 nm were collected and applied in portions of 500 μl to an ion exchange column (MonoQ, Pharmacia). The column was eluted with a 150 mM solution of NaCl and a 42 kD protein was identified on an SDS-PAGE gel and then confirmed by mass spectroscopy. The production yields of soluble fusion protein are 5 mg/l of culture.
Following purification, the fusion protein sample was dialyzed against a buffer (150 mM NaCl, 2.5 mM CaCl2, 50 mM Tris/HC1) at pH=8. Human thrombin (T7009, Sigma) was added to give a final concentration of 5u per mg of fusion protein. The mixture was incubated at ambient temperature for 30 minutes. The products of the cutting reaction were characterized on an SDS-PAGE gel and a protein having a molecular weight of 18 kD (corresponding to the expected molecular weight of NBF1) was observed.
The GST-NBF1 fusion protein is efficiently recognized by an anti-NBF1 antibody (MATG 1061, distributed by Transgene). The affinity of this recombinant protein for ATP was verified. […]

B1: NBF1: Recombinant NBF1 domain of the CFTR protein (sequence R450-I586), 18 kD, released from GST fusion by thrombin (protein, UniProt P13569 450-586, looked up, fragment)
chain: RGQLLAVAGSTGAGKTSLLMVIMGELEPSEGKIKHSGRISFCSQFSWIMPGTIKENIIFGVSYDEYRYRSVIKACQLEEDISKFAEKDNIVLGEGGITLSGGQRARISLARAVYKDADLYLLDSPFGYLDVLTEKEI
Q: Which “behaviour on column of immobilized GSH” value does the source give for B1 here?
A: retained on the GSH column
